# Tests used:
# [1] = set-up: species or system ddY-strain male mice; conditions: mouse
# Description: 100 μL (about 1 μCi) of unpurified ^99mTc-(D-Pen-N-hexanoate-cRGDfK)2 or ^99mTc-(D-Pen-N-hexanoate-cRGDfK)2 purified by RP-HPLC was administered to the tail veins of ddY-strain male mice at 6 weeks of age (three mice for each group). The mice were sacrificed 10 minutes, 1, 3, and 6 hours after the administration, and blood samples were collected. The mice were anatomized, and the weight and radioactivity of each organ were measured. The radioactivity in urine and feces excreted by 6 hours after the administration was also measured.
# [2] = system: Human glioma cell line, U87MG cells; assay: Accumulation of radiolabeled drug in tumor and organ of tumor-bearing mice; assay type: in vivo, Balb/c-nu/nu mice; conditions: for Ratio of accumulation in tumor to that in tissue: Tumor/Blood / Ratio of accumulation in tumor to that in tissue: Tumor/Intestine / Ratio of accumulation in tumor to that in tissue: Tumor/Liver: 1 hour after administration; for Accumulated amount in tissue: Blood / Accumulated amount in tissue: Intestine / Accumulated amount in tissue: Kidney / Accumulated amount in tissue: Liver / Accumulated amount in tissue: Lung / Accumulated amount in tissue: Stomach / Accumulated amount in tissue: Tumor: 1 hour after tail vein administration
# Description: Human glioma cell line, U87MG cells at 5×10^6 cells/mouse were administered subcutaneously in the left femur of Balb/c-nu/nu mice at 4 weeks of age. The mice bearing the tumor of 0.5 g in size were used for a body distribution experiment.
# A ^99mTc-GH solution with [GH]=4.0 mg/mL was obtained by adding 750 μL (1.58 μCi) of a solution of Na[^99mTcO4] in saline eluted from a ^99Mo/^99mTc generator to a lyophilized GH kit (3.0 mg) including α-D-glucoheptonic acid and stannous chloride to perform a reaction at room temperature for 20 minutes. Further, a 2 mM ligand solution was separately prepared by dissolving D-Pen-Hx-cRGDfK (0.8 mg, […]) in 471 μL of 0.1 M Tris hydrochloride buffer (pH 9.0) purged with nitrogen. 140 μL of the ^99mTc-GH solution was added to 140 μL of the ligand solution, they were sufficiently mixed, and then subjected to a reaction at 40° C. for 40 minutes. The reaction solution was diluted to 40-fold with saline so that [Free ligand]=0.025 mM to use as the unpurified sample to be administered.
# A ^99mTc-GH solution with [GH]=4.0 mg/mL was obtained by adding 500 μL (970 μCi) of a solution of Na[^99mTcO4] in saline eluted from a ^99Mo/^99mTc generator to a lyophilized GH kit (2.0 mg) including α-D-glucoheptonic acid and stannous chloride to perform a reaction at room temperature for 20 minutes. Further, a 2 mM ligand solution was separately prepared by dissolving TMEC-[N-hexanoate-c(Arg-Gly-Asp-D-Phe-Lys)]2 (hereinafter, sometimes abbreviated as TMEC-RGD2) (0.7 mg, 0.406 μmol) in 200 μL of 0.1 M acetate buffer (pH 3.5) purged with nitrogen. 200 μL of the ^99mTc-GH solution was added to 200 μL of the ligand solution, they were sufficiently mixed, and then subjected to a reaction at 80° C. for one hour. A half amount of the reaction solution (200 μL) was applied to RP-HPLC (mobile phase: A=10 mM phosphate buffer (pH 6.0), B=MeOH; gradient system: 0 to 18 minutes: B=0 to 60%, 18 to 26 minutes: B=60 to 100%, 26 to 31 minutes: B=100%), a fraction eluted at 24 minutes was collected, the organic solvent was distilled off under reduced pressure, and then the residue was diluted with 10% ethanol/saline to use as the purified sample. Further, the other half amount of the reaction solution (200 μL) was diluted to 40-fold with saline so that [Free ligand]=0.025 mM to use as the unpurified sample to be administered.
# 100 μL of the unpurified ^99mTC-(D-Pen-Hx-cRDGfK)2 sample (about 1.1 μCi) was administered to the tail veins of tumor-bearing Balb/c-nu/nu male mice at 10 weeks of age. There were 5 mice in one group. The mice were sacrificed by beheading 1 hour after the administration. Blood, organs of interest, and the tumor were removed, and the weight of and the radioactivity in each organ were measured.
# 100 μL of the purified or unpurified ^99mTc-TMEC-RGD2 sample (about 0.5 μCi) was administered to the tail veins of tumor-bearing Balb/c-nu/nu male mice at 10 weeks of age. There were 4 mice in one group. The mice were sacrificed by beheading 1 hour after the administration. Blood, organs of interest, and the tumor were removed, and the weight of and the radioactivity in each organ were measured.
# [3] = Stability of 99mTc complex in buffer; assay type: physicochemical; conditions: 0.01 M phosphate buffer (pH 6.0), room temperature, after 1, 3, 6, and 24 hours
# Description: 11. Examination of Stability
# Each ^99mTc-labeled compound was purified by RP-HPLC (method 1 or method 2), and then the solvent was distilled off under reduced pressure. The residue was redissolved in 400 μL of 0.01 M phosphate buffer (pH 6.0). This solution was stored at room temperature, and after 1, 3, 6, and 24 hours, its radiochemical purity was analyzed by CAE or RP-HPLC.
# [4] = administered after removing the excessive ligand by HPLC
# [5] = administered without removing the excessive ligand
substance,measurement,setting,value
^99mTc-(D-Pen-N-hexanoate-cRGDfK)2 [^99mTc-(Pen-RGD)2],Stability in vivo,[1],stable in vivo
same,"Ratio accumulated in the tumor to that in each tissue, compared with purified 99mTc-TMEC-RGD2","[2]; mouse, in vivo",equivalence to or higher than
^99mTc-(D-penicillamine)2 [^99mTc-(D-Pen)2],Stability in a buffer (radiochemical purity),[3],higher stability
^99mTc-TMEC-[N-hexanoate-c(Arg-Gly-Asp-D-Phe-Lys)]2 [^99mTc-TMEC-RGD2],Ratio of accumulation in tumor to that in tissue: Tumor/Blood,[2]; [4],4.91 (1.07)
same,Ratio of accumulation in tumor to that in tissue: Tumor/Intestine,[2]; [4],0.54 (0.10)
same,Ratio of accumulation in tumor to that in tissue: Tumor/Liver,[2]; [4],0.65 (0.14)
same,Accumulated amount in tissue: Blood,[2]; [4],0.72 (0.02) % injected dose/gram tissue
same,Accumulated amount in tissue: Intestine,[2]; [4],6.70 (0.75) % injected dose/gram tissue
same,Accumulated amount in tissue: Kidney,[2]; [4],16.68 (3.87) % injected dose/gram tissue
same,Accumulated amount in tissue: Liver,[2]; [4],5.47 (0.41) % injected dose/gram tissue
same,Accumulated amount in tissue: Lung,[2]; [4],2.33 (0.31) % injected dose/gram tissue
same,Accumulated amount in tissue: Stomach,[2]; [4],1.20 (0.16) % injected dose
same,Accumulated amount in tissue: Tumor,[2]; [4],increased
same,Accumulated amount in tissue: Tumor,"[2]; administered after removing the excessive ligand by HPLC, listed as 99mTC-TMEC-RGD2",3.54 (0.72) % injected dose/gram tissue
same,Ratio of accumulation in tumor to that in tissue: Tumor/Blood,[2]; [5],3.41 (1.55)
same,Ratio of accumulation in tumor to that in tissue: Tumor/Intestine,[2]; [5],0.37 (0.13)
same,Ratio of accumulation in tumor to that in tissue: Tumor/Liver,[2]; [5],0.67 (0.31)
same,Accumulated amount in tissue: Blood,[2]; [5],0.86 (0.33) % injected dose/gram tissue
same,Accumulated amount in tissue: Intestine,[2]; [5],7.42 (1.95) % injected dose/gram tissue
same,Accumulated amount in tissue: Kidney,[2]; [5],26.82 (8.71) % injected dose/gram tissue
same,Accumulated amount in tissue: Liver,[2]; [5],4.57 (2.10) % injected dose/gram tissue
same,Accumulated amount in tissue: Lung,[2]; [5],2.38 (0.57) % injected dose/gram tissue
same,Accumulated amount in tissue: Stomach,[2]; [5],0.79 (0.30) % injected dose

# — patent publication US20120065367A1, “Radioactively Labeled Substance” (priority 2009, published 2012)
